The term Kd denotes the equilibrium constant for the complex coming apart.

Results on 11 molecules are retold here after patent publication US20240252641A1 (TCR2 THERAPEUTICS, published 2024).

Assay [1] concerns the target T1, human CD70, recombinant, N-terminally biotinylated (residues 39-193) (human, UniProt P32970 39-193, N-terminal biotin).
T1 construct: range 39-193; the same entry is used there; also called biotinylated human CD70; CD70 biotin
T1 sequence (looked up): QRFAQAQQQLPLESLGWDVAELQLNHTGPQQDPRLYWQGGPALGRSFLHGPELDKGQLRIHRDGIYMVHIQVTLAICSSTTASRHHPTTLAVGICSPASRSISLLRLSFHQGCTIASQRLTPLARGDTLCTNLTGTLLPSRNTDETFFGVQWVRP
Description: SPR. The method in brief:
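The scFv antibodies are human and were isolated by panning a naïve human library on the extracellular domain of CD70 (aa39-193). Their affinity (Kd) was measured by surface plasmon resonance analysis. The binding partner was recombinant human antigen biotinylated at the N-terminus.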
On the technique in general: Surface plasmon resonance follows binding to a sensor surface in real time, without labels.

For assay [2], the target named is T1, human CD70, recombinant, N-terminally …. Kind of assay: CD27 blocking ELISA, 3 µM scFv, strep/HRP. On the technique in general: In an ELISA, binding on a coated surface is turned into a signal by an enzyme label.
Assay [3] has as its target T2, CD70 on cells (CHO-CD70, JVM-3, U266, Raji, THP-1, T cells) (human, UniProt P32970 1-193).
T2 construct: whole, on cells; also called cell-surface CD70
T2 sequence (looked up): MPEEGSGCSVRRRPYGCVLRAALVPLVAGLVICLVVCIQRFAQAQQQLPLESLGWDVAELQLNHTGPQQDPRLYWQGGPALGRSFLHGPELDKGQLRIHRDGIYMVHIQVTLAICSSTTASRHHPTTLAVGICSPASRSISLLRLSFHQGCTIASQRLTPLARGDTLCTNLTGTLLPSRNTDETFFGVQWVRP
Description: 1.25 µg/mL scFv on JVM-3 cells. The method in brief:
(§1)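 Human scFv antibodies were raised by panning a naïve human library against the CD70 extracellular domain (aa39-193). They were tested for binding to tumour cell lines with high CD70 expression (CHO-CD70, JVM3, U266) and low CD70 expression (CHO WT, K562). Cell binding was recorded per cell line, and the detection method is not stated.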

The target in assay [4] is T2, CD70 on cells (CHO-CD70, JVM-3, U266, …). Description: 1.25 µg/mL scFv on CHO-CD70 cells. The method in brief:
as §1

For assay [5] the target is unchanged. Kind of assay: 1.25 µg/mL scFv on U266 cells. The method in brief:
as §1

The target in assay [6] is T1, human CD70, recombinant, N-terminally …. Kind of assay: CD27 blocking ELISA, 3 µM scFv, anti-His/HRP. Note: unit not given here. The protocol:
Human scFv antibodies binding CD70 were generated by panning a naïve human library with the extracellular domain (aa39-193) of CD70. 53 antibodies were identified. The ability of CD27 to block CD70 binding of the identified antibodies was measured by ELISA using two different assays. In the first assay, CD27 and his-tagged scFv anti-CD70 binders were simultaneously added to surface bound CD70, and the ability of the scFv binders to bind CD70 was detected with anti-His HRP. In the second assay, plate-bound CD70 was pre-incubated with CD27 for 30 minutes, and then additional CD27 and the his-tagged scFv anti-CD70 binder was added. The ability of the scFv binders to bind CD70 was detected with anti-His HRP. FIG. 34 is a schematic of the two different CD27 blocking assays. CD70 affinity was also measured by SPR analysis. scFv antibodies were also tested for their ability to bind tumor cell lines with high (CHO-CD70, JVM3, and U266) and low levels (CHO WT and K562 of CD70 expression. Results for 39 antibodies are shown in Table 1 below.

B1: 59-TC4-VII-F02 (scFv)
scFv: QLQLQESGPGLVKPSGTLSLTCAVSGGSISSSNWWSWVRQPPGKGLEWIGEIYHSGSTNYNPSLKSRVTISVDKSKNQFSLKLSSVTAADTAVYYCAGPGPDPNDAFDIWGQGTMVTVSSGGSGGSGGSGGSSSELTQDPAVSVALGQTVRITCQGDSLRSYYASWYQQLPGTAPKLLIYQDSKRPSGIPERFSGSNSGNTATLTISGTQAMDEADYYCQAWDSSTAVFGGGTKLTVL
notes: His-tagged
On to B1, for which, in assay [1], the dissociation constant (Kd) was 101 nM. The strep/HRP in assay [2] was 1.43. The cell binding turned out to be 52100 in assay [3], 850000 in assay [4] and 18500 in assay [5]. For the same molecule, in assay [6], the “anti His/HRP” value was 2.06.

B2: 14-TC6-I-F03 (scFv)
scFv: QVQLVQSGAEVKKPGASVKVSCKASGYTFTGYYMNWVRQAPGQGLEWMAWINPNTGDTNYAQKFQGRVTMTRDTSINTAYIELSRLTSDDTAVYYCARVGDYYDRSGYYRHDAFDIWGQGTMVTVSSGGSGGSGGSGGSSSELTQDPAVSVALGQTVRITCQGDSLRSYYASWYQQKPGQAPVLVIYGKNNRPSGIPDRFSGSNSGNTATLTISGTQAMDEADYYCQAWDSSTVFGGGTKVTVL
notes: His-tagged
Consider B2, for which the equilibrium dissociation constant (Kd) in assay [1] was determined as 289 nM. Also, in assay [2], the strep/HRP stood at 0.954. Moreover, the cell binding in assay [3] was determined as 1880; in assay [4] it was 33400; in assay [5] it was 1430. Moreover, the “anti His/HRP” value in assay [6] was 2.47.

B3: 14-TC4-XIII-A01 (scFv)
scFv: QVQLVQSGAEVKKPGASVKVSCKASGYTFTGYYMNWVRQAPGQGLEWMAWINPNTGDTNYAQKFQGRVTMTRDTSINTAYIELSRLTSDDTAVYYCARVGDYYDRSGYYRHDAFDIWGQGTMVTVSSGGSGGSGGSGGSSSELTQDPAVSVALGQTVRITCQGDSLRSYYASWYQQKPGQAPVLVIYGKNNRPSGIPDRFSGSSSGNTASLTITGAQAMDEADYYCQAWDSSTGVVFGGGTKVTVL
notes: His-tagged
Consider B3, for which the Kd in assay [1] turned out to be 2830 nM. For the same molecule, the strep/HRP in assay [2] stood at 1.46. Besides, the cell binding in assay [3] came to 1290; in assay [4], 111000; in assay [5] it was 953. Besides, the “anti His/HRP” value in assay [6] is 1.74.

B4: 55-TC4-IX-G04 (scFv)
scFv: QVQLLESGGGVVQPGRSLRLSCAASGFTFSSYAMHWVRQAPGKGLEWVAVISYDGSNKYYADSVKGRFTISRDNSKNTLYLQMNSLRAEDTAVYYCARGLGFGSGWYEYVDAFDIWGQGTMVTVSSGGSGGSGGSGGSQSVLTQPASVSGSPGQSITISCTGTSSDVGSYNLVSWYQQHPGKAPKLMIYEVSKRPSGVSNRFSGSKSGNTASLTISGLQAEDEADYYCSSYRSNNTPWVFGGGTKLTVL
notes: His-tagged
For the molecule B4, in assay [1], the Kd turned out to be 984 nM. The strep/HRP in assay [2] came to 1.28. Further, the cell binding was found to be 3570 in assay [3], 87200 in assay [4] and 2700 in assay [5]. Besides, in assay [6], the “anti His/HRP” value worked out at 1.24.

B5: 14-TC4-III-A04 (scFv)
scFv: QVQLVQSGAEVKKPGASVKVSCKASGYTFTGYYMNWVRQAPGQGLEWMAWINPNTGDTNYAQKFQGRVTMTRDTSINTAYIELSRLTSDDTAVYYCARVGDYYDRSGYYRHDAFDIWGQGTMVTVSSGGSGGSGGSGGSSSELTQDPAVSVALGQTVRITCQGDSLRSYYASWYQQKPGQAPVLVIYGKNNRPSGIPDRFSGSSSGNTASLTITGAQAEDEADYYCQAWDSSTGVFGGGTKVTVL
notes: His-tagged
B5: in assay [1], the Kd was determined as 13.7 nM. In assay [2], the strep/HRP came to 0.359. Moreover, the cell binding in assay [3] came to 17000; in assay [4], 610000; in assay [5], 20400. Further, the “anti His/HRP” value in assay [6] is 2.81.

B6: 51-TC7-VIII-G06 (scFv)
scFv: QVQLLESGGGLVQPGRSLRLSCAASGFTFDDYAMHWVRQAPGKGLEWVSGITWNSGSIGYADSVKGRFTISRDNAKNSLYLQMNSLRAEDTAVYYCAREVAARPFYYYGMDVWGQGTTVTVSSGGSGGSGGSGGSQSVLTQPPSVSVAPGKTARITCGGNNIGSKSVHWYQQKPGQAPVLVVYDDSDRPSGIPERFSGSNSGNTATLTISGTQAMDEADYYCQAWDSSTVFGGGTKLTVL
notes: His-tagged
In the case of B6, the Kd in assay [1] is 532 nM. For the same molecule, the strep/HRP in assay [2] is 1.46. For the same molecule, the cell binding in assay [3] worked out at 4260; in assay [4], 170000; in assay [5] it was 2140. In addition, the “anti His/HRP” value in assay [6] was found to be 0.676.

B7: 58-TC7-III-G11 (scFv)
scFv: EVQLVQSGGGVVQPGRSLRLSCAASGFTFSSYAMHWVRQAPGKGLEWVAVISYDGSNKYYADSVKGRFTISRDNSKNTLYLQMNSLRAEDTAVYYCATNSGYDSDYYYGMDVWGQGTTVTVSSGGSGGSGGSGGSQSVLTQPPSMSGAPGQRVTISCTGSSSNIGAGYDVHWYQHLPGTGPKLLIHGNTNRPSGVPDRFSGSKSGTSASLAITGLQAEDEADYYCQSYDNSLGGYVVFGGGTKVTVL
notes: His-tagged
As for B7, the Kd in assay [1] was 8900 nM. Also, the strep/HRP in assay [2] turned out to be 0.503. Further, the cell binding was determined as 14700 in assay [3], 277000 in assay [4] and 12000 in assay [5]. Also, the “anti His/HRP” value in assay [6] was 1.97.

B8: 30-TC1.2-I-C08-1 (scFv)
scFv: QMQLVQSGAEVKKPGASVKVSCKASGYTFTSYGISWVRQAPGQGLEWMGWINPNTGGTDYAQKFQGRVTITRDTSITTGYMELSRLRSDDTAVYYCARHYYYGMDVWGQGTTVTVSSGGSGGSGGSGGSDIQLTQSPSSLSASVGDRVTITCQASQDISNYLNWYQQKPGKAPKLLIYDASNLETGVPSRFSGSGSGTDFTFTISSLQPEDIATYYCQQYDNLPLTFGGGTKVEIK
notes: His-tagged
Turning to B8, in assay [1], the dissociation constant Kd was found to be 67.3 nM. For the same molecule, the strep/HRP in assay [2] turned out to be 1.5. The cell binding was determined as 37400 in assay [3], 503000 in assay [4] and 17400 in assay [5]. The “anti His/HRP” value in assay [6] is 1.83.

B9: 43-TC4-VII-C04 (scFv)
scFv: QVQLLESGGGLVQPGRSLRLSCAASGFTFDDYAMHWVRQAPGKGLEWVSGISWNSGSIGYADSVKGRFTISRDNAKNSLYLQMNSLRAEDTAVYYCARDLVYYYGMDVWGQGTTVTVSSGGSGGSGGSGGSQSVLTQPPSVSGTPGQGVSISCSGSSSNIGWKTVNWYQQVPGMAPKLLIYSDNQRPSGVPDRFSGSKSATSASLAISGLQSEDEADYYCASWDASVNAPVFGGGTKLTVL
notes: His-tagged
With B9, the Kd in assay [1] came out at 69.9 nM. Also, the strep/HRP in assay [2] was determined as 1.44. The values for the cell binding in assay [3], in assay [4] and in assay [5] were 45000, 723000 and 20000, respectively. Further, in assay [6], the “anti His/HRP” value is 1.81.

B10: 52-TC7-VIII-C02 (scFv)
scFv: QVQLLESGGGVVQPGRSLRLSCAASGFTFSSYGMHWVRQAPGKGLEWVAVISYDGSNKYYADSVKGRFTISRDNSKNTLYLQMNSLRAEDTAVYYCAKGAYYYGSVSGMDVWGQGTTVTVSSGGSGGSGGSGGSSYELTQPVSVSVALGQTARLTCAGNNIGSKNVHWYQQKPSQAPVLVIYNDNIRPNFGIPERFSGSNSGNTATLTISSAQAGDEADYYCQVWDSSTAEVFGGGTKLTVL
notes: His-tagged
For the molecule B10, in assay [1], the Kd was found to be 64.6 nM. In addition, the strep/HRP in assay [2] was found to be 0.533. In addition, the cell binding in assay [3] stood at 8050; in assay [4] it was 430000; in assay [5] it was 2980. Further, the “anti His/HRP” value in assay [6] was 1.56.

B11: 35-TC6-VII-A09 (scFv)
scFv: EVQLVQSGGGVVQPGRSLRLSCAASGFTFSSYGMHWVRQAPGKGLEWVAVISYDGSNKYYADSVKGRFTISRDNSKNTLYLQMNSLRAEDTAVYYCAKAGAPPHYYYGMDVWGQGTTVTVSSGGSGGSGGSGGSQSALTQPASVSGSPGQSITISCTGTSSDVGGYDYVSWYQQHPGKAPKLMIYEVTDRPSGIPNRFSGSKSGNTASLTISGLQAEDEADYYCSSYTYTSTLEVFGGGTKVTVL
notes: His-tagged
For B11, in assay [1], the dissociation constant (Kd) worked out at 367 nM. Besides, in assay [2], the strep/HRP is 1.49. Further, the figures for the cell binding in assay [3], in assay [4] and in assay [5] were 18800, 1.15e+06 and 16500, respectively. The “anti His/HRP” value in assay [6] came to 0.639.
